Publication PMC8368996, “Interactions between AMOT PPxY motifs and NEDD4L WW domains function in HIV-1 release” (The Journal of Biological Chemistry, 2021)
Like-named read-outs stand apart in the source and are kept apart here. Values belong to the substance of their own block, whether it stands above or below them.

Key:
[1] = molecular target: AMOT PPxY3 (Homo sapiens) (UniProt Q4VCS5); conditions: cited from earlier work
[2] = molecular target: AMOT PPxY1 A112K mutant peptide (UniProt Q4VCS5); experiment: fluorescence polarisation; 1 nM Oregon Green-labelled PPxY peptide, 2-fold dilutions of WW domain; 20 mM Tris pH 7.5, 150 mM NaCl, 0.5 mM TCEP; 26 °C (legend: 25 °C)
[3] = molecular target: AMOT PPxY1 peptide (residues 100-114), Oregon Green 488-labelled (UniProt Q4VCS5); experiment: as above
[4] = molecular target: AMOT PPxY2 P239L mutant peptide (UniProt Q4VCS5); experiment: as above
[5] = molecular target: AMOT PPxY1 E104K/E105K mutant peptide (UniProt Q4VCS5); experiment: as above
[6] = molecular target: AMOT PPxY1 peptide (residues 100-114), Oregon Green 488-labelled (UniProt Q4VCS5); experiment: as above; remark: listed apart in the source
AMOT(1-300)-ALEXA488 = AMOT(1-300)-ALEXA488 (UniProt Q4VCS5); experiment: fluorescence polarisation
Sequence of AMOT(1-300)-ALEXA488 (Q4VCS5 1-300): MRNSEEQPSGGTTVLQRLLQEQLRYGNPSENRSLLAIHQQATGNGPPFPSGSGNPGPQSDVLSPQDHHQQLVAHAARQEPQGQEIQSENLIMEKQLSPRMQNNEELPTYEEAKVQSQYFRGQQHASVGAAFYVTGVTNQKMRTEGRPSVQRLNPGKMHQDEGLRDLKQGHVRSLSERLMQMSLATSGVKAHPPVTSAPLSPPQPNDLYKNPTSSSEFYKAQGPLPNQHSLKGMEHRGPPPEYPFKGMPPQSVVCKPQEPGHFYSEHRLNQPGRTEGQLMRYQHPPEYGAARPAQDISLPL

Sequence of KIBRA WW1-WW2 (Q8IX03 6-86): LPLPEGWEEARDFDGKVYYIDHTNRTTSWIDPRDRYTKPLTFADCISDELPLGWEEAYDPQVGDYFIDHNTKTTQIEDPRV

Substance: KIBRA WW1-WW2 (from UniProt Q8IX03)
Kd [1]: 0.096 µM

Kd [2]: 40 µM | Kd [3]: 4.5 µM | fold reduction of binding against wt PPxY2 [4]: 2.8 fold | Kd [5]: 31 µM | Kd [6]: 4.8 µM
Substance: NEDD4L WW3 domain (domain or fragment)

Kd (AMOT(1-300)-ALEXA488): 2.7 µM
Substance: full-length recombinant NEDD4L (isoform 2) (enzyme)
